The values below are quoted from earlier work in publication PMC7431755, “Automated high-content imaging for cellular uptake, from the Schmuck cation to the latest cyclic oligochalcogenides” (Beilstein Journal of Organic Chemistry, 2020).

Like-named read-outs stand apart in the source and are kept apart here.

The test system of this data set is HGM cells. The method, then: The CP50 value of 7.3 ± 0.5 µM obtained for 25 outperformed the CP50 value of 14.9 ± 0.5 μM of the previously reported cell-penetrating streptavidin, in which four asparagusic acids are covalently bound to the protein through irreversible triazole linkages. The CP50 value of 7.3 ± 0.5 µM of 25 was not far above the CP50 value of 3.1 ± 0.5 µM of HIV Tat, the original CPP [55]. As the uptake efficiency generally decreases with the size, this similarity is particularly impressive, considering that the COC carrying a 52 kDa protein is compared to a small undecapeptide.

As to “cell-penetrating streptavidin: previously reported streptavidin with four asparagusic acids covalently bound through irreversible triazole linkages”, the CP50 was 14.9 ± 0.5 µM.

For the substance “HIV Tat: the original CPP, a small undecapeptide”, under “CAPA”, the CP50 is reported as 3.1 ± 0.5 µM.
